According to the supplement of paper PMC9112550, “Optimization of the antimicrobial peptide Bac7 by deep mutational scanning” (BMC Biology, 2022):

Test system: Escherichia coli TOP10
Test: shrunken log2 fold change of peptide-encoding DNA abundance (4.5 h post-induction vs induction); higher = less antimicrobial activity (less host growth inhibition)
Conditions: time post-induction: 4.5 h; library: site-saturation at positions 5, 18, 19, 20
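Also: peptides expressed intracellularly from a pBAD plasmid library in pooled LB shake-flask culture, induced with 0.3% L-arabinose, DNA abundance read by NGS, three biological replicates, DESeq2 with apeglm shrinkage.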

Sequence	shrunken log2 fold change
RRIRDRPPRLPRPRPRPVMQPRP	0.023
RRIRDRPPRLPRPRPRPVNLPRP	0.0119
RRIRDRPPRLPRPRPRPVNRPRP	-0.131
RRIRDRPPRLPRPRPRPVQSPRP	-0.0116
RRIRDRPPRLPRPRPRPVREPRP	0.929
RRIRDRPPRLPRPRPRPVSNPRP	0.00716
RRIRDRPPRLPRPRPRPVTVPRP	-0.135
RRIRDRPPRLPRPRPRPVVAPRP	0.725
RRIRDRPPRLPRPRPRPVYSPRP	0.0356
RRIRDRPPRLPRPRPRPWAPPRP	0.00499
RRIRDRPPRLPRPRPRPWCAPRP	-0.0367
RRIRDRPPRLPRPRPRPWCDPRP	0.211
RRIRDRPPRLPRPRPRPWCQPRP	-0.0971
RRIRDRPPRLPRPRPRPWDTPRP	-0.029
RRIRDRPPRLPRPRPRPWDWPRP	1.03
RRIRDRPPRLPRPRPRPWFEPRP	-0.175
RRIRDRPPRLPRPRPRPWHWPRP	0.00118
RRIRDRPPRLPRPRPRPWHYPRP	-0.225
RRIRDRPPRLPRPRPRPWIVPRP	0.0145
RRIRDRPPRLPRPRPRPWKNPRP	-0.0182
RRIRDRPPRLPRPRPRPWLMPRP	-0.1
RRIRDRPPRLPRPRPRPWNWPRP	0.0868

Sequence	shrunken log2 fold change
RRIRDRPPRLPRPRPRPWQDPRP	-0.0397
RRIRDRPPRLPRPRPRPWQYPRP	-0.482
RRIRDRPPRLPRPRPRPWRAPRP	0.132
RRIRDRPPRLPRPRPRPWRIPRP	-0.139
RRIRDRPPRLPRPRPRPWSWPRP	0.215
RRIRDRPPRLPRPRPRPWTMPRP	-0.0209
RRIRDRPPRLPRPRPRPWTTPRP	-0.0204
RRIRDRPPRLPRPRPRPWVCPRP	-0.0108
RRIRDRPPRLPRPRPRPWVYPRP	-0.0138
RRIRDRPPRLPRPRPRPWYCPRP	-0.137
RRIRDRPPRLPRPRPRPYAGPRP	0.0325
RRIRDRPPRLPRPRPRPYAKPRP	0.019
RRIRDRPPRLPRPRPRPYCDPRP	-0.181
RRIRDRPPRLPRPRPRPYCHPRP	-0.121
RRIRDRPPRLPRPRPRPYDHPRP	-0.361
RRIRDRPPRLPRPRPRPYFPPRP	-0.944
RRIRDRPPRLPRPRPRPYGQPRP	-0.0816
RRIRDRPPRLPRPRPRPYHAPRP	-0.0316
RRIRDRPPRLPRPRPRPYIEPRP	-0.0649
RRIRDRPPRLPRPRPRPYKAPRP	-0.0157
RRIRDRPPRLPRPRPRPYKGPRP	-0.00133
RRIRDRPPRLPRPRPRPYKNPRP	-0.454

Sequence	shrunken log2 fold change
RRIRDRPPRLPRPRPRPYKWPRP	-0.595
RRIRDRPPRLPRPRPRPYMLPRP	-0.153
RRIRDRPPRLPRPRPRPYQNPRP	-0.288
RRIRDRPPRLPRPRPRPYQWPRP	0.0508
RRIRDRPPRLPRPRPRPYRDPRP	-0.444
RRIRDRPPRLPRPRPRPYRFPRP	-0.0178
RRIRDRPPRLPRPRPRPYRIPRP	0.0295
RRIRDRPPRLPRPRPRPYSDPRP	0.0396
RRIRDRPPRLPRPRPRPYSKPRP	0.0519
RRIRDRPPRLPRPRPRPYSQPRP	-0.0305
RRIRDRPPRLPRPRPRPYVFPRP	-0.18
RRIRDRPPRLPRPRPRPYVYPRP	-0.0147
RRIRDRPPRLPRPRPRPYWIPRP	-0.296
RRIRERPPRLPRPRPRPAAMPRP	0.102
RRIRERPPRLPRPRPRPAATPRP	0.222
RRIRERPPRLPRPRPRPADKPRP	-0.187
RRIRERPPRLPRPRPRPADTPRP	-0.262
RRIRERPPRLPRPRPRPAEEPRP	-0.175
RRIRERPPRLPRPRPRPAFEPRP	-0.0208
RRIRERPPRLPRPRPRPAFGPRP	0.353
RRIRERPPRLPRPRPRPAGLPRP	-0.0519
RRIRERPPRLPRPRPRPAGNPRP	-0.0376

Sequence	shrunken log2 fold change
RRIRERPPRLPRPRPRPAHAPRP	0.117
RRIRERPPRLPRPRPRPAHQPRP	-0.136
RRIRERPPRLPRPRPRPAIGPRP	0.0473
RRIRERPPRLPRPRPRPAIHPRP	0.125
RRIRERPPRLPRPRPRPAKFPRP	0.112
RRIRERPPRLPRPRPRPAKHPRP	-0.107
RRIRERPPRLPRPRPRPAKVPRP	-0.182
RRIRERPPRLPRPRPRPALFPRP	0.0738
RRIRERPPRLPRPRPRPALKPRP	0.4
RRIRERPPRLPRPRPRPALPPRP	0.439
RRIRERPPRLPRPRPRPALRPRP	0.0887
RRIRERPPRLPRPRPRPALVPRP	0.193
RRIRERPPRLPRPRPRPAMEPRP	-0.0417
RRIRERPPRLPRPRPRPANGPRP	-0.042
RRIRERPPRLPRPRPRPANYPRP	-0.0934
RRIRERPPRLPRPRPRPARKPRP	0.00472
RRIRERPPRLPRPRPRPATCPRP	-0.292
RRIRERPPRLPRPRPRPAWPPRP	0.359
RRIRERPPRLPRPRPRPAWTPRP	0.0563
RRIRERPPRLPRPRPRPAYSPRP	-0.0646
RRIRERPPRLPRPRPRPCAFPRP	-0.315
RRIRERPPRLPRPRPRPCATPRP	0.0398

Sequence	shrunken log2 fold change
RRIRERPPRLPRPRPRPCCAPRP	0.112
RRIRERPPRLPRPRPRPCCHPRP	-0.603
RRIRERPPRLPRPRPRPCCKPRP	-0.267
RRIRERPPRLPRPRPRPCEFPRP	-0.283
RRIRERPPRLPRPRPRPCFNPRP	-0.324
RRIRERPPRLPRPRPRPCKYPRP	3.12
RRIRERPPRLPRPRPRPCLGPRP	-0.0295
RRIRERPPRLPRPRPRPCLQPRP	-0.218
RRIRERPPRLPRPRPRPCNDPRP	-0.19
RRIRERPPRLPRPRPRPCNKPRP	-0.858
RRIRERPPRLPRPRPRPCQCPRP	-0.0543
RRIRERPPRLPRPRPRPCRHPRP	-0.00171
RRIRERPPRLPRPRPRPCRPPRP	-0.00126
RRIRERPPRLPRPRPRPCTRPRP	0.0517
RRIRERPPRLPRPRPRPCWTPRP	0.0421
RRIRERPPRLPRPRPRPCWYPRP	-0.0102
RRIRERPPRLPRPRPRPDARPRP	-0.0768
RRIRERPPRLPRPRPRPDCEPRP	-0.0494
RRIRERPPRLPRPRPRPDDLPRP	0.00911
RRIRERPPRLPRPRPRPDEFPRP	0.0332
RRIRERPPRLPRPRPRPDETPRP	-0.015
